Reference: patent US20240366811A1, “RA[…] P[…] USES THEREOF” (TIANJIN CONJUSTAR BIOLOGICS CO., LTD., priority 2023, published 2024)
*1 amine or outer side, *2 acyl side, *3 side chain or, on linkers, in order; H or OH if unused. Where a SMILES comes first, the peptide text is derived from it. Bridges are numbered along the chain shown (N, C = ends). [ ]: non-standard residue; d: D form. The star is where a group is joined. TATA = O=C(CC[*:1])N1CN(C(=O)CC[*:2])CN(C(=O)CC[*:3])C1; NOTA = O=C(O)CN1CCN(CC(=O)O)CCN(CC(=O)*)CC1; Hyp = O=C(O)[C@@H]1C[C@@H](O)CN1; hArg = N=C(N)NCCCC[C@H](N)C(=O)O; Pen = CC(C)(S)[C@H](N)C(=O)O; βAla = NCCC(=O)O; Sar = CNCC(=O)O

Experiments:
PC-3 tumor-bearing mice = details: 4 h; dissected tissue uptake ratio; mouse S3
Procedure: In vivo radiobiological distribution assay: mice in the PET/CT imaging group were sacrificed immediately after the end of 4 h imaging, and mice in the inhibition group were sacrificed after 1 h imaging. Tissue samples of tumor, blood, heart, lung, liver, spleen, kidney, stomach, intestine, bone, muscle, and brain were collected by dissection, weighed and their radioactive counts were recorded. The probe uptake value in each tissue and organ of each experimental animal is expressed as radioactivity per gram of tissue as a percentage of the dose administered (% ID/g).

in vivo = details: nude, mouse, iv, 11.1 MBq, total radioactivity
Procedure: The tissue distribution characteristics of the compounds in PC-3 tumor-bearing mice were studied by using the PC-3 tumor-bearing mice model, small animal PET/CT scans were performed at different time points after a single intravenous administration of the compounds, tumors and other regions of interest were delineated to obtain radioactive uptake values.
Tumor cells in the logarithmic growth phase were used for in vivo tumor inoculation. PC-3 cells were suspended in saline at a density of 5×10^6/mL, and a total of 15 nude mice were inoculated under the right flank at 0.1 mL per inoculation point. Imaging and biodistribution experiments were performed when tumors grew to 300-600 mm^3 (tumor volume measurement method: the long diameter and short diameter of the tumor were measured, and its volume calculation formula was: volume=0.5× major diameter× minor diameter^2). The drug was distributed according to the animal dose on the drug distribution table, and a certain volume of compound diluent was absorbed by a 1 mL insulin syringe, and the initial radioactive dose and initial dosimetry time were recorded. The injection time, residual radioactivity dose, and residual dose determination time were recorded after tail vein injection in tumor-bearing mice. […] PET/CT scans of animals were performed at different time points after administration. During the scanning process, the animals continued to inhale 1-2% isoflurane to maintain the anesthetic effect, and the scanning time was recorded. […] After the completion of PET/CT scanning, the images were reconstructed and the images and data were processed with the software of the device. The tumor, heart (including contents), kidney, intestine, and muscle were delineated as regions of interest. The percentage injection dose rate per gram of tissue in the area of interest (% ID/g) was obtained. The data of biological distribution was expressed as the percentage of radioactive count per gram of tissue or organ to the total dose (radioactive count) (% ID/g).
Data for each sampling point were expressed as the mean standard deviation (mean SD) of 3 tumor-bearing mice.

[1] = tumor and heart (including contents)
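Throughout, for Tumor/muscle: dissected tissues were weighed and their radioactivity counted, uptake given as percent of administered dose per gram, tissue ratios derived from these values.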
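Throughout, for Tumor/spleen: dissected tissues were weighed and their radioactivity counted, uptake given as percent of administered dose per gram, tissue ratios derived from these values.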
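Throughout, for Tumor/stomach: dissected tissues were weighed and their radioactivity counted, uptake given as percent of administered dose per gram, tissue ratios derived from these values.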

## CC(C)C[C@@H]1NC(=O)[C@@H]2CSCCC(=O)N3CN(CN(C3)C(=O)CCSC(C)(C)[C@@H](C(N)=O)NC(=O)[C@H](CCCCNC(=N)N)NC(=O)[C@H](Cc3c[nH]c4ccccc34)NC(=O)[C@@H](CC(=O)O)NC(=O)[C@@H]3CCCN3C(=O)[C@H](Cc3c[nH]cn3)NC1=O)C(=O)CCSC[C@H](NC(=O)[C@@H]1CC(=O)NCCCC[C@H](NC(=O)CN(C)C(=O)CN(C)C(=O)CN(C)C(=O)CN(C)C(=O)CN(C)C(=O)CN(C)C(=O)CN(C)C(=O)CN(C)C(=O)CN(C)C(=O)CN(C)C(=O)CCNC(=O)CN3CCN(CC(=O)O)CCN(CC(=O)O)CC3)C(=O)N[C@@H](CCCCNC(=N)N)C(=O)N1)C(=O)N1C[C@H](O)C[C@H]1C(=O)N[C@@H](CC(C)C)C(=O)N[C@@H](C(C)C)C(=O)N[C@@H](CC(N)=O)C(=O)N1CCC[C@H]1C(=O)N[C@@H](CC(C)C)C(=O)N2 [Example 3] ({NOTA-βAla}-[Sar][Sar][Sar][Sar][Sar][Sar][Sar][Sar][Sar][Sar]K[hArg]DC[Hyp]LVNPLCLHP[dD]W[hArg][Pen]-NH2; lactam 11-13; linker 14-21-28 via TATA)
PC-3 tumor-bearing mice
  Tumor/muscle: 19.97
  Tumor/spleen: 10.00
  Tumor/stomach: 34.54
In vivo; heart (including contents)
  tissue uptake at 2 min: 3.35 ± 0.35 %ID/g
  tissue uptake at 5 min: 2.95 ± 0.63 %ID/g
  tissue uptake at 8 min: 2.59 ± 0.67 %ID/g
  tissue uptake at 11 min: 2.18 ± 0.51 %ID/g
  tissue uptake at 14 min: 1.86 ± 0.41 %ID/g
  tissue uptake at 17 min: 1.65 ± 0.38 %ID/g
  tissue uptake at 20 min: 1.51 ± 0.36 %ID/g
  tissue uptake at 23 min: 1.41 ± 0.31 %ID/g
  tissue uptake at 26 min: 1.28 ± 0.3 %ID/g
  tissue uptake at 29 min: 1.18 ± 0.24 %ID/g
  tissue uptake at 0.5 h: 1.21 ± 0.3 %ID/g
  tissue uptake at 1 h: 0.65 ± 0.25 %ID/g
  tissue uptake at 2 h: 0.15 ± 0.06 %ID/g
  tissue uptake at 4 h: 0.06 ± 0.02 %ID/g
In vivo; kidney
  tissue uptake at 2 min: 15 ± 0.64 %ID/g
  tissue uptake at 5 min: 14.6 ± 2.02 %ID/g
  tissue uptake at 8 min: 14.9 ± 2.94 %ID/g
  tissue uptake at 11 min: 15.2 ± 2.41 %ID/g
  tissue uptake at 14 min: 15.1 ± 2.42 %ID/g
  tissue uptake at 17 min: 14.4 ± 2.34 %ID/g
  tissue uptake at 20 min: 14.4 ± 2.61 %ID/g
  tissue uptake at 23 min: 13.9 ± 2.02 %ID/g
  tissue uptake at 26 min: 12.5 ± 1.35 %ID/g
  tissue uptake at 29 min: 11.5 ± 0.94 %ID/g
  tissue uptake at 0.5 h: 11.6 ± 1.26 %ID/g
  tissue uptake at 1 h: 9.68 ± 0.18 %ID/g
  tissue uptake at 2 h: 8.82 ± 0.68 %ID/g
  tissue uptake at 4 h: 8.03 ± 0.35 %ID/g
In vivo; liver
  tissue uptake at 2 min: 2.62 ± 0.25 %ID/g
  tissue uptake at 5 min: 2.22 ± 0.41 %ID/g
  tissue uptake at 8 min: 1.94 ± 0.35 %ID/g
  tissue uptake at 11 min: 1.6 ± 0.23 %ID/g
  tissue uptake at 14 min: 1.44 ± 0.23 %ID/g
  tissue uptake at 17 min: 1.23 ± 0.15 %ID/g
  tissue uptake at 20 min: 1.14 ± 0.14 %ID/g
  tissue uptake at 23 min: 1.07 ± 0.14 %ID/g
  tissue uptake at 26 min: 0.97 ± 0.16 %ID/g
  tissue uptake at 29 min: 0.91 ± 0.1 %ID/g
  tissue uptake at 0.5 h: 0.92 ± 0.07 %ID/g
  tissue uptake at 1 h: 0.59 ± 0.21 %ID/g
  tissue uptake at 2 h: 0.22 ± 0.04 %ID/g
  tissue uptake at 4 h: 0.13 ± 0.05 %ID/g
In vivo; muscle
  tissue uptake at 2 min: 1.06 ± 0.1 %ID/g
  tissue uptake at 5 min: 1.02 ± 0.18 %ID/g
  tissue uptake at 8 min: 0.97 ± 0.16 %ID/g
  tissue uptake at 11 min: 0.91 ± 0.19 %ID/g
  tissue uptake at 14 min: 0.82 ± 0.12 %ID/g
  tissue uptake at 17 min: 0.74 ± 0.13 %ID/g
  tissue uptake at 20 min: 0.69 ± 0.11 %ID/g
  tissue uptake at 23 min: 0.66 ± 0.14 %ID/g
  tissue uptake at 26 min: 0.67 ± 0.16 %ID/g
  tissue uptake at 29 min: 0.56 ± 0.11 %ID/g
  tissue uptake at 0.5 h: 0.55 ± 0.15 %ID/g
  tissue uptake at 1 h: 0.26 ± 0.05 %ID/g
  tissue uptake at 2 h: 0.07 ± 0.02 %ID/g
  tissue uptake at 4 h: 0.03 ± 0.01 %ID/g
In vivo; [1]
  tissue to tissue ratio at 0.5 h: 1.23 ± 0.25
  tissue to tissue ratio at 1 h: 2.08 ± 0.74
  tissue to tissue ratio at 2 h: 6.97 ± 3.01
  tissue to tissue ratio at 4 h: 15.9 ± 5.85
In vivo; tumor and kidney
  tissue to tissue ratio at 0.5 h: 0.12 ± 0.01
  tissue to tissue ratio at 1 h: 0.13 ± 0.03
  tissue to tissue ratio at 2 h: 0.12 ± 0.06
In vivo; tumor and liver
  tissue to tissue ratio at 0.5 h: 1.57 ± 0.14
  tissue to tissue ratio at 1 h: 2.24 ± 0.68
  tissue to tissue ratio at 2 h: 4.53 ± 1.44
In vivo; tumor and muscle
  tissue to tissue ratio at 0.5 h: 2.69 ± 0.47
  tissue to tissue ratio at 1 h: 5.01 ± 0.82
  tissue to tissue ratio at 2 h: 15.6 ± 3.52
  tissue to tissue ratio at 4 h: 31.4 ± 9.05
In vivo; tumor
  tissue uptake at 2 min: 1.37 ± 0.21 %ID/g
  tissue uptake at 5 min: 1.41 ± 0.13 %ID/g
  tissue uptake at 8 min: 1.45 ± 0.13 %ID/g
  tissue uptake at 11 min: 1.46 ± 0.09 %ID/g
  tissue uptake at 14 min: 1.46 ± 0.07 %ID/g
  tissue uptake at 17 min: 1.48 ± 0.08 %ID/g
  tissue uptake at 20 min: 1.51 ± 0.13 %ID/g
  tissue uptake at 23 min: 1.46 ± 0.09 %ID/g
  tissue uptake at 26 min: 1.46 ± 0.13 %ID/g
  tissue uptake at 29 min: 1.45 ± 0.14 %ID/g
  tissue uptake at 0.5 h: 1.43 ± 0.13 %ID/g
  tissue uptake at 1 h: 1.27 ± 0.28 %ID/g
  tissue uptake at 2 h: 1.04 ± 0.45 %ID/g
  tissue uptake at 4 h: 0.98 ± 0.46 %ID/g
